# Measurements reported in US20140086935A1 (Bayer, published 2014).
# Positions count from the first letter of the chain named.
# B1: MS-BW-1 (Fab, V domains shown)
# VH: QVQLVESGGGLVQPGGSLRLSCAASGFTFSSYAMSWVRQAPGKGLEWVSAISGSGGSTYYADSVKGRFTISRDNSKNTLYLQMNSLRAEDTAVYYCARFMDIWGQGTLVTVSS
# VL: DIALTQPASVSGSPGQSITISCTGTSSDVGGYNYVSWYQQHPGKAPKLMIYDVSNRPSGVSNRFSGSKSGNTASLTISGLQAEDEADYYCQSYDYQQFTVFGGGTKLTVLG
# notes: Fab, FLAG + Strep-tag II; not tied by name
# B2: MS-BW-40 (Fab, V domains shown)
# VH: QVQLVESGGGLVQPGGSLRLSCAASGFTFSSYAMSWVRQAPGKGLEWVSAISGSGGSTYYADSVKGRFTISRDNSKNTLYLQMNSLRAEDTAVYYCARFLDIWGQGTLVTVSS
# VL: B1 VL
# notes: Fab: heavy chain of MS-BW-3 with light chain of MS-BW-1; not tied by name
# B3: MS-BW-41 (Fab, V domains shown)
# VH: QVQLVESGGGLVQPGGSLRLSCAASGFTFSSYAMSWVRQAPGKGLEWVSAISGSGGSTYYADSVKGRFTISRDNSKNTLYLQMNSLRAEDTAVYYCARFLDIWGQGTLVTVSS
# VL: B1 VL with Y95F, Q96K, Q97T, F98Y, T99L
# notes: Fab: heavy chain of MS-BW-3 with light chain of MS-BW-2; not tied by name
# B4: MS-BW-43 (Fab, V domains shown)
# VH: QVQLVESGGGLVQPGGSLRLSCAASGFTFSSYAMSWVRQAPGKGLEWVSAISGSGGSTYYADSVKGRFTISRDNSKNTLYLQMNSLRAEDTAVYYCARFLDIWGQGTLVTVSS
# VL: B1 VL with Y95F, Q96I, Q97N, F98V, T99I
# notes: Fab: heavy chain of MS-BW-3 with light chain of MS-BW-25; not tied by name
# B5: MS-BW-45 (Fab, V domains shown)
# VH: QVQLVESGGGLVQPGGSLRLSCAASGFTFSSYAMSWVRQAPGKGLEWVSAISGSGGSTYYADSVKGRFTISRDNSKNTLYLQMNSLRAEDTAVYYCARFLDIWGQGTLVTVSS
# VL: B1 VL with Y95F, Q96Y, Q97K, T99N
# notes: Fab: heavy chain of MS-BW-3 with light chain of MS-BW-27; not tied by name
# B6: MS-BW-46 (Fab, V domains shown)
# VH: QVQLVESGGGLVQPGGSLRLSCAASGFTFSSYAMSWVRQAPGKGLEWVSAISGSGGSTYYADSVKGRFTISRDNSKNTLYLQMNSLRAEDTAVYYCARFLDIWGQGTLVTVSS
# VL: B1 VL with Y95F, Q96R, Q97R, T99S
# notes: Fab: heavy chain of MS-BW-3 with light chain of MS-BW-28; not tied by name
# B7: MS-BW-47 (Fab, V domains shown)
# VH: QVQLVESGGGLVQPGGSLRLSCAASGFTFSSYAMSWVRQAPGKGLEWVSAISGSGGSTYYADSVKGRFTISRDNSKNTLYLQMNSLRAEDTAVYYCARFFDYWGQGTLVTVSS
# VL: B1 VL
# notes: Fab: heavy chain of MS-BW-28 with light chain of MS-BW-1; not tied by name
# B8: MS-BW-49 (Fab, V domains shown)
# VH: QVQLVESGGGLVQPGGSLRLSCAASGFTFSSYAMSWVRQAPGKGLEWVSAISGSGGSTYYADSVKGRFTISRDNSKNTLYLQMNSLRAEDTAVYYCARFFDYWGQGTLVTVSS
# VL: B1 VL with Y95F, Q96K, Q97T, F98Y, T99L
# notes: Fab: heavy chain of MS-BW-28 with light chain of MS-BW-2; not tied by name
# B9: MS-BW-51 (Fab, V domains shown)
# VH: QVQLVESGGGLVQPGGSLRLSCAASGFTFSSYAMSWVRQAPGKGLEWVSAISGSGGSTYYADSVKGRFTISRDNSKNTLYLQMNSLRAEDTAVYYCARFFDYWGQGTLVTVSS
# VL: B1 VL with Y95F, Q96I, Q97N, F98V, T99I
# notes: Fab: heavy chain of MS-BW-28 with light chain of MS-BW-25; not tied by name
# B10: MS-BW-52 (Fab, V domains shown)
# VH: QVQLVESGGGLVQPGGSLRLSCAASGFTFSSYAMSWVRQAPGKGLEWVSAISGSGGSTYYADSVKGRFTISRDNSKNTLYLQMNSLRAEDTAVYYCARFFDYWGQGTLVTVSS
# VL: B1 VL with Y95F, Q96V, Q97R, T99M
# notes: Fab: heavy chain of MS-BW-28 with light chain of MS-BW-26; not tied by name
# B11: MS-BW-27 (Fab, V domains shown)
# VH: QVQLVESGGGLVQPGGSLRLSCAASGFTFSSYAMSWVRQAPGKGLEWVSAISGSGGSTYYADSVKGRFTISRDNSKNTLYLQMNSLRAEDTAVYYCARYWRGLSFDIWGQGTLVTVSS
# VL: B1 VL with Y95F, Q96Y, Q97K, T99N
# notes: as for B1
# B12: MS-BW-17 (Fab, V domains shown)
# VH: QVQLVQSGAEVKKPGESLKISCKGSGYSFTSYWIGWVRQMPGKGLEWMGIIYPGDSDTRYSPSFQGQVTISADKSISTAYLQWSSLKASDTAMYYCARLTNYFDSIYYDHWGQGTLVTVSS
# VL: DIALTQPASVSGSPGQSITISCTGTSSDVGGYNYVSWYQQHPGKAPKLMIYDVSNRPSGVSNRFSGSKSGNTASLTISGLQAEDEADYYCQSYDPSHPSKVFGGGTKLTVLG
# notes: as for B1
# B13: MS-BW-17-2 (Fab, V domains shown)
# VH: B12 VH
# VL: B12 VL with S92A, Y93F, D94A, P95V, S96M, H97P, P98N, S99V, K100E
# notes: Fab from LCDR3 optimization of MS-BW-17
# B14: MS-BW-17-3 (Fab, V domains shown)
# VH: B12 VH
# VL: B12 VL with Y93F, D94T, P95V, H97P, P98G, S99A, K100D
# notes: as for B13
# B15: MS-BW-54 (Fab, V domains shown)
# VH: QVQLVQSGAEVKKPGESLKISCKGSGYSFTSYWIGWVRQMPGKGLEWMGIIYPGDSDTRYSPSFQGQVTISADKSISTAYLQWSSLKASDTAMYYCARYYGFEYDLLFDNWGQGTLVTVSS
# VL: B1 VL with Y95I, Q96S, Q97G, F98Y, T99P
# notes: as for B1
# B16: MS-BW-54-1 (Fab, V domains shown)
# VH: B15 VH
# VL: B1 VL with V29L, D52A, V53G, S54N, S92A, Y95S, Q96S, Q97G, F98Y, T99P
# notes: Fab from LCDR1, -2, -3 optimization of MS-BW-54
# B17: MS-BW-32 (Fab, V domains shown)
# VH: QVQLVQSGAEVKKPGSSVKVSCKASGGTFSSYAISWVRQAPGQGLEWMGGIIPIFGTANYAQKFQGRVTITADESTSTAYMELSSLRSEDTAVYYCARTKYVGSEDVWGQGTLVTVSS
# VL: B12 VL with P95F, P98Y, S99F, K100F
# notes: as for B1
# B18: MS-BW-36 (Fab, V domains shown)
# VH: QVQLVQSGAEVKKPGESLKISCKGSGYSFTSYWIGWVRQMPGKGLEWMGIIYPGDSDTRYSPSFQGQVTISADKSISTAYLQWSSLKASDTAMYYCARYRYPHMFDFWGQGTLVTVSS
# VL: DIELTQPPSVSVAPGQTARISCSGDALGDKYASWYQQKPGQAPVLVIYDDSDRPSGIPERFSGSNSGNTATLTISGTQAEDEADYYCQSYDLRYSHVFGGGTKLTVLG
# notes: as for B1
# B19: MS-BW-55 (Fab, V domains shown)
# VH: QVQLVQSGAEVKKPGSSVKVSCKASGGTFSSYAISWVRQAPGQGLEWMGWINPNSGGTNYAQKFQGRVTMTRDTSISTAYMELSSLRSEDTAVYYCARITYIGYDFWGQGTLVTVSS
# VL: B12 VL with Y93R, P95L, S96Y, H97Y, P98V, S99Y, K100Y
# notes: as for B1
# B20: MS-BW-56 (Fab, V domains shown)
# VH: QVQLVQSGAEVKKPGSSVKVSCKASGGTFSSYAISWVRQAPGQGLEWMGGIIPIFGTANYAQKFQGRVTITADESTSTAYMELSSLRSEDTAVYYCARQEWYMDYWGQGTLVTVSS
# VL: DIELTQPPSVSVAPGQTARISCSGDALGDKYASWYQQKPGQAPVLVIYDDSDRPSGIPERFSGSNSGNTATLTISGTQAEDEADYYCQSYDRSMWVFGGGTKLTVLG
# notes: as for B1
# B21: MS-BW-57 (Fab, V domains shown)
# VH: QVQLVQSGAEVKKPGESLKISCKGSGYSFTSYWIGWVRQMPGKGLEWMGIIYPGDSDTRYSPSFQGQVTISADKSISTAYLQWSSLKASDTAMYYCARLYPEDLIYFDYWGQGTLVTVSS
# VL: B1 VL with Y93W, Y95V, Q97T, F98D, T99K
# notes: as for B1
# B22: MS-BW-59 (Fab, V domains shown)
# VH: B12 VH with T100R, N101V, Y102H, F103D, D104Y, S105A, I106M, Y108F, H110L
# VL: B1 VL with Y95I, Q96M, Q97P, F98E, T99R
# notes: as for B1
# B23: MS-BW-60 (Fab, V domains shown)
# VH: QVQLVQSGAEVKKPGESLKISCKGSGYSFTSYWIGWVRQMPGKGLEWMGIIYPGDSDTRYSPSFQGQVTISADKSISTAYLQWSSLKASDTAMYYCARFVSYNGSVPYFDYWGQGTLVTVSS
# VL: B1 VL with Y93M, Y95F, Q96R, Q97L, F98M, T99H
# notes: as for B1
# B24: MS-BW-61 (Fab, V domains shown)
# VH: B21 VH with L99I, Y100I, P101G, E102D, D103Y, L104V, Y106F, Y109V
# VL: B1 VL with Y93F, Y95M, Q96I, Q97H, F98P, T99Y
# notes: as for B1
# B25: MS-BW-26 (Fab, V domains shown)
# VH: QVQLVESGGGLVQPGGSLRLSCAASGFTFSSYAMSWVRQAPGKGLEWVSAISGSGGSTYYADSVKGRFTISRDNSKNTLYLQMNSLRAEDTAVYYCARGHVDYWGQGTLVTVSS
# VL: B1 VL with Y95F, Q96V, Q97R, T99M
# notes: as for B1
# B26: MS-BW-44-2-15 (Fab, V domains shown)
# VH: QVQLVESGGGLVQPGGSLRLSCAASGFTFSSYAMSWVRQAPGKGLEWVSGISGNGVLIFYADSVKGRFTISRDNSKNTLYLQMNSLRAEDTAVYYCARWFDHWGQGTLVTVSS
# VL: B1 VL with Y95F, Q96V, Q97R, T99M
# notes: Fab
# B27: MS-BW-44-2-16 (Fab, V domains shown)
# VH: B26 VH with H102V
# VL: B1 VL with Y95F, Q96V, Q97R, T99M
# notes: Fab
# Target: T1, human TIMP-1 (human, UniProt P01033 24-207)
# Assay: cell-based or functional assay
row,Binder,IC50 in human protease assay [µM]
1,B1,> 0.1

# Target: T1, human TIMP-1
# Assay: cell-based or functional assay
# Remark: another data set of the same source
row,Binder,IC50 in human protease assay [µM]
1,B2,> 0.1
2,B3,0.029
3,B4,> 0.1
4,B5,0.009
5,B6,0.004
6,B7,> 0.1
7,B8,> 0.1
8,B9,0.007
9,B10,0.009

# Target: T1, human TIMP-1
# Assay: SPR (BIAcore), TIMP-1 coupled to chip, monovalent Fab
# Method: (§1) For affinity determination, monomeric fractions of affinity and SEC purified Fab fragments or purified IgG1 molecules were used. All experiments were conducted in HBS buffer at a flow rate of 20 μl/min at 25° C. on a BIAcore™ instrument. Antigens in 100 mM sodium acetate pH 5.0 were coupled to a CM 5 sensor chip using standard EDC-NHS coupling chemistry. […] All sensograms were fitted globally using BIA evaluation software. For monovalent Fab fragments a monovalent fit (Langmuir binding) and for IgGs a bivalent fit was applied.
row,Binder,Kd [µM]
1,B2,~0.049
2,B3,~0.006
3,B4,~0.065
4,B5,0.008
5,B6,0.006
6,B7,~0.152
7,B8,~0.021
8,B9,~0.007
9,B10,~0.011
10,B11,~0.074

# Target: T2, rat TIMP-1 (rat, UniProt P30120 24-217)
# Assay: as above
# Method: as §1
# T2 sequence (P30120 24-217 limits assumed): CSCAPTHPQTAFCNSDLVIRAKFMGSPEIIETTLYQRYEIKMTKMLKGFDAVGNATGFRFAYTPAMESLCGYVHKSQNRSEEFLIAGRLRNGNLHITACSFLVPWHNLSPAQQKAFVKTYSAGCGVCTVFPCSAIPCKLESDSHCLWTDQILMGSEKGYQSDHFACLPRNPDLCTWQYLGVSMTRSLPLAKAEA
row,Binder,Kd [µM]
1,B12,0.013
2,B13,0.0013
3,B14,0.0019
4,B15,0.009
5,B16,0.002

# Target: T2, rat TIMP-1
# Assay: as above
# Remark: another data set of the same source
# Method: as §1
row,Binder,Kd [µM]
1,B12,0.013
2,B17,~0.092
3,B18,~0.042
4,B15,0.009
5,B19,~0.023
6,B20,~0.17
7,B21,~0.039
8,B22,~0.015
9,B23,~0.03
10,B24,~0.051

# Target: T1, human TIMP-1
# Assay: as above
# Remark: another data set of the same source
# Method: as §1
row,Binder,Kd [µM]
1,B1,0.065
2,B25,~0.1
3,B11,~0.074

# Target: T1, human TIMP-1
# Assay: as above
# Remark: another data set of the same source
# Method: as §1
row,Binder,Kd [µM]
1,B26,0.0003
2,B27,0.0005

# Target: T2, rat TIMP-1
# Assay: cell-based or functional assay
row,Binder,IC50 in rat protease assay [µM]
1,B12,0.011
2,B17,> 0.1
3,B18,~0.075
4,B15,0.007
5,B19,~0.1
6,B20,> 0.1
7,B21,~0.06
8,B22,0.03
9,B23,> 0.1
10,B24,> 0.1

# Target: T2, rat TIMP-1
# Assay: cell-based or functional assay
# Remark: another data set of the same source
row,Binder,IC50 in rat protease assay [µM]
1,B12,0.011
2,B13,0.0011
3,B14,0.003
4,B15,0.007
5,B16,0.003

# Target: T1, human TIMP-1
# Assay: cell-based or functional assay
# Remark: another data set of the same source
row,Binder,"IC50 in human protease assay (modified, decreased TIMP-1 and MMP-1) [µM]"
1,B26,0.0002
2,B27,0.0003
